In article PMC10003557 (International Journal of Molecular Sciences, 2023):

Columns and labels:
[1] = target: T1, biotinylated RBD protein (SPD-C82E9, Acro Biosystems) (SARS-CoV-2 (WT), UniProt P0DTC2); assay: bead-based flow cytometry (iQue3, Qbeads) competition assay; conditions: both partners purified
T1 construct: also called Biotinylated RBD WT; RBD-Qbeads

[2] = target: T2, SARS-CoV-2 receptor-binding domain (RBD) wild-type (WT) (SARS-CoV-2 (Wuhan, WT), UniProt P0DTC2); assay: SPR; Biacore; antibodies captured on the chip (Protein A CM5 chip by the methods, anti-IgG antibody by the results), RBD WT flown over; 1:1 Langmuir fit; conditions: both partners purified
T2 construct: also called RBD WT; RBD Wuhan (WT)

[3] = target: T2, SARS-CoV-2 receptor-binding domain …; assay: ELISA; binding ELISA of purified hIgG1 on RBD; EC50; conditions: both partners purified
[4] = target: T2, SARS-CoV-2 receptor-binding domain …; assay: bead-based flow cytometry (iQue3) blocking assay; conditions: both partners purified
[5] = target: T1, biotinylated RBD protein (SPD-C82E9, …); assay: bead-based flow cytometry (iQue3, Qbeads) competition assay; conditions: both partners purified; remark: listed apart in the source
[6] = target: T2, SARS-CoV-2 receptor-binding domain …; assay: cell-based or functional assay
[7] = target: T2, SARS-CoV-2 receptor-binding domain …; assay: SPR; Biacore; antibodies captured on the chip (Protein A CM5 chip by the methods, anti-IgG antibody by the results), RBD WT flown over; 1:1 Langmuir fit; conditions: both partners purified; remark: listed apart in the source
[8] = target: T2, SARS-CoV-2 receptor-binding domain …; assay: bead-based flow cytometry (iQue3) blocking assay; conditions: both partners purified; remark: listed apart in the source

B1: P5E1 (hIgG1) (antibody, V domains shown)
VH: EVQLLESGGGLVQPGGSLRLSCAASGFTFSDSAMSWVRQAPGKGLEWVSGIYGRGGYTYYADSVKGRFTISRDNSKNTLYLQMNSLRAEDTAVYYCARGGSWFDPWGQGTLVTVSS
VL: not shown
IC50 [1]: 2.15 nM
Kd [2]: 27.1 nM
koff [2]: 0.00433 s⁻¹
kon [2]: 160000 M⁻¹ s⁻¹
EC50 [3]: 0.97 nM
IC50 [4]: 2.63 nM

B2: P5E1-A6 (hIgG1) (antibody, V domains shown)
VH: EVQLLESGGGLVQPGGSLRLSCAASGFTFTSTAMSWVRQAPGKGLEWVSGIYGRGSTRYADSVKGRFTISRDNSKNTLYLQMNSLRAEDTAVYYCARGGSWFDPWGQGTLVTVSS
VL: not shown
IC50 [5]: 0.06 nM
PRNT: authentic SARS-CoV-2 on Vero E6 cells, NC50; pair blocked: RBD with hACE-2 [6]: 43.9 nM
Kd [7]: 0.89 nM
koff [7]: 0.000527 s⁻¹
kon [7]: 588000 M⁻¹ s⁻¹
IC50 [8]: 0.61 nM

B3: P5A10-G2 (hIgG1) (antibody, V domains shown)
VH: EVQLLESGGGLVQPGGSLRLSCAASGFTSSNTWMSWVRQAPGKGLEWVSGIDGRGGSTYYADSVKGRFTISRDNSKNTLYLQMNSLRAEDTAVYYCATDSSTQPWYFDLWGRGTLVTVSS
VL: EIVLTQSPATLSLSPGERATLSCRASQSVSSNLAWYQQKPGQAPRLLIYDASNRATGIPARFSGSGSGTDFTLTISSLEPEDFAVYYCQQREREPITFGQGTKVEIK
IC50 [5]: 1.23 nM
PRNT: authentic SARS-CoV-2 on Vero E6 cells, NC50; pair blocked: RBD with hACE-2 [6]: 61.1 nM
Kd [7]: 0.39 nM
koff [7]: 0.000578 s⁻¹
kon [7]: 1.49e+06 M⁻¹ s⁻¹
IC50 [8]: 1.18 nM

B4: P5A10-G4 (hIgG1) (antibody, V domains shown)
VH: EVQLLESGGGLVQPGGSLRLSCAASGFTFSSYWMSWVRQAPGKGLEWVSGISGSGRRAFGGSTYYADSVKGRFTISRDNSKNTLYLQMNSLRAEDTAVYYCATDSSTQPWYFDLWGRGTLVTVSS
VL: EIVLTQSPATLSLSPGERATLSCRASQSVSSNLAWYQQKPGQAPRLLIYDASNRATGIPARFSGSGSGTDFTLTISSLEPEDFAVYYCQQREREPITFGQGTKVEIK
IC50 [5]: 0.12 nM
PRNT: authentic SARS-CoV-2 on Vero E6 cells, NC50; pair blocked: RBD with hACE-2 [6]: 10.4 nM
Kd [7]: 0.14 nM
koff [7]: 0.000148 s⁻¹
kon [7]: 1.09e+06 M⁻¹ s⁻¹
IC50 [8]: 0.78 nM

B5: P5A10 (hIgG1) (antibody, V domains shown)
VH: EVQLLESGGGLVQPGGSLRLSCAASGFTFSSSAMSWVRQAPGKGLEWVSGIYGRGGSTYYADSVKGRFTISRDNSKNTLYLQMNSLRAEDTAVYYCATDSSTQPWYFDLWGRGTLVTVSS
VL: EIVLTQSPATLSLSPGERATLSCRASQSVSSNLAWYQQKPGQAPRLLIYDASNRATGIPARFSGSGSGTDFTLTISSLEPEDFAVYYCQQREREPITFGQGTKVEIK
IC50 [1]: 2.34 nM
Kd [2]: 28.8 nM
koff [2]: 0.00367 s⁻¹
kon [2]: 127000 M⁻¹ s⁻¹
EC50 [3]: 16.9 nM
